Results published in the supplement of paper PMC9170038.

Tested on: MS2 coat protein
Test: apparent KD of MS2 coat protein; higher = weaker reporter binding
Conditions: Eterna round: R107
Outline: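 Illumina sequencing clusters served as templates for on-chip transcription of the designed RNA switches. SNAP-549-labelled MS2 coat protein was then titrated in twofold steps from 0.7 or 1.5 nM to 3 µM, allowing 0.8–1.5 h per step at first and 10–20 min per step later. The buffer held 100 mM Tris-HCl pH 7.5, 80 mM KCl and 4 mM MgCl2, without or with constant ligand. Apparent KD is the median per design of normalised cluster binding-curve fits.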

[1] = input ligand: theophylline 20 uM
[2] = input ligand: theophylline 2 mM
[3] = input ligand: tryptophan 2.4 mM

Sequence	apparent KD of MS2 coat protein (input ligand: arginine 13.2 mM) [nM]	apparent KD of MS2 coat protein (input ligand: none) [nM]	apparent KD of MS2 coat protein [1] [nM]	apparent KD of MS2 coat protein [2] [nM]	apparent KD of MS2 coat protein [3] [nM]
CACAUGAGGAUCACCCAUGUCUGAACUGAAGGAGCGCUAAACAAGGCAGGUAGGUCGCGGAAUUUUGUGUGCAUAUGCACAUGGG [9.O]	19.7	28.2	22.3	24.6	25.8
CACAUGAGGAUCACCCAUGUCUGAACUGAAGGAGCGCUAAAUAAGGCAGGUAGGUCGCGGAAUUUUGUGUGCAUAUGCACAUGGG [9.P]	17.2	27.9	30.7	26.9	23.9
CAUAUAUAAGCGGCCGCCACUUACUCAUGAGGUAACAACAUGAGGAUCACCCAUGUUUGAGGAUCAAGGACCGGGCUUAUAUAUG [AstrosSSTryB#5]	27	–	27.3	28.5	–
CAUGAGAGAUUGUUUUGUGACUCUAACGAUACCAGAGUAGGACUUCUCCCUUGGCAGCGUGUGACAUGAGGAUCACCCAUGUCCA [theeternabot_exclusion_MS2_Theo_A_5]	11.8	–	12.9	–	11.3
CCCAGUCAUAGCAAAGCAAAUAUACUCGAAGGAGCGUCAUAGUAGGCAGGUAGGUCGCGAGACAUGAGGAUCACCCAUGUAGAGA [ooomullin]	35.6	39.7	46.7	57.8	41.3
CCGGCCAGGGCGGCCGCCACUGAACGUGGAAGAAAGAAAACAUGAGGAUCACCCAUGUAAAUCCUCAGGACCGGGCCAGGGCCGG	42.3	57.8	71	67	17.8
CCGUCACAUGAGGAUCACCCAUGUGCGGAAGGAGCGGACGACAGUCCAGGUAGGUCGCCGUAUAGCCAAUGACCAGCAGUGUCGG [Betesotiqu]	5.9	10.6	20.8	9.93	13.9
CCGUCCCUCGGAAGGAGCGGCGCAAUGUAAGGGACCUUUUAUACAUGAGGAUCACCCAUGUGCCAGGUAGGUCGCCGAGAGCGUG [Erxeatge]	79.5	77.2	74	145	140
CCGUUUUAUGGCGACAUAGGGCGGACUGAAGGAGCGGUAAAACAGCCAGGUAGGUCGCAGAGAUCCACAUGAGGAUCACCCAUGU [!0.aC]	35.7	39.1	43.2	51.2	37.9
CCUAUCCAGUCGGCCGCCACUGACCAUUUGGAACAGUGGGUGAAUACAUGAGGAUCACCCAUGUACAGGACCGGGACUGUAUAGG [Ex Tryptophan B 21]	14.4	11.2	13.1	10.4	27.9
CCUAUGCAGUCGGCCGCCACUGAACAUGAGGAUCACCCAUGUAAUUAAAAUUAUGAUCCUGAAAUCAGGACCGGGACUGUAUAGG [Ex Tryptophan B 5]	28.6	–	165	431	–
CCUCAAUAGACGGCCGCCACUGAAUCAUGCGGAUACAUGAGGAUCACCCAUGUGGGUGUGGUACGCAGGACCGGGUCAAGACCCG [#13 Same State - Tryptophan B]	278	145	454	1860	149
CCUCAAUAGACGGCCGCCACUGAGACAUGAGGAUACAUGAGGAUCACCCAUGUGGGUGUGUCACGCAGGACCGGGUCAAGACCCG [Tryp B SS t2]	183	–	497	794	–
CCUCAUGAACAUGAGGAUCACCCAUGUACACGAGGACCGGUACGGCCGCCACUCGAAUAACCUAAAUAUAAAUAAUAAUAAUAGG [5' end split MS2]	14.6	–	20.1	18.1	–
CCUUACGUUGGGCAGCCAGUUCGAAGUGAUACCAGUCACAAAAGUGACCCUUGGCAGCACCGCACAUGAGGAUCACCCAUGUCUA [SSThA NP+V+V2 #8 Same Structure]	36.4	34.8	55.1	63.3	62.8
CGAAUAUAGACGGCCGCCACUCUACAAACAUGAGGAUCACCCAUGUUCACAUAGAGGAAACUCAUGAGGACCGGGUCAUAGGCUU [#20 Same State - Tryptophan B]	23.5	–	32.5	27.4	–
CGAUCCUGCAGGGAUACCAGCGCCGCUUGAUAACUGUGCACAUGAGGAUCACCCAUGUAGCGCCCUUGGCAGCCCAGCUAGAGGG [Same State Theophylline B GF25]	12.9	15	29.2	13.9	14.7
CGCACAUGAGGAUCACCCAUGUGAGGGCGGCGAGGACCGGUACGGCCGCCACUCGCAGGACAUGAGGAUCACCCAUGUGCCGCCG [SSTA DOUBLE!!! :-D]	32.5	548	397	501	351
